Patent US20260167699A1 (Chugai, published 2026)

B1: GpH7-A5/GpH7-B3 variant K326_06M/GpL16-k0 (antibody, human IgG1, kappa)
heavy 1: not shown
heavy 2: not shown
light: DIVMTQSPLSLPVTPGEPASISCQASESLVHSNRNTYLHWYLQKPGQSPQLLIYKVSNRFSGVPDRFSGSGSGTDFTLKISRVEAEDVGVYYCSQNTHVPPTFGQGTKVEIERTVAAPSVFIFPPSDEQLKSGTASVVCLLNNFYPREAKVQWKVDNALQSGNSQESVTEQDSKDSTYSLSSTLTLSKADYEKHKVYACEVTHQGLSSPVTKSFNRGEC
notes: He Ab; copies: 1 + 1 + 2
B2: GpH7-A5/GpH7-B3 variant K326_12R/GpL16-k0 (antibody, human IgG1, kappa)
heavy 1: not shown
heavy 2: not shown
light: B1 light
notes: He Ab; copies: 1 + 1 + 2
B3: GpH7-A5/GpH7-B3 variant L235_09D/GpL16-k0 (antibody, human IgG1, kappa)
heavy 1: not shown
heavy 2: not shown
light: B1 light
notes: He Ab; copies: 1 + 1 + 2
B4: GpH7-A5/GpH7-B3 variant L234_16H/GpL16-k0 (antibody, human IgG1, kappa)
heavy 1: not shown
heavy 2: not shown
light: B1 light
notes: He Ab; copies: 1 + 1 + 2
B5: GpH7-A5/GpH7-B3 variant K326_18N/GpL16-k0 (antibody, human IgG1, kappa)
heavy 1: not shown
heavy 2: not shown
light: B1 light
notes: He Ab; copies: 1 + 1 + 2
B6: GpH7-A5/GpH7-B3 variant L328_02A/GpL16-k0 (antibody, human IgG1, kappa)
heavy 1: not shown
heavy 2: not shown
light: B1 light
notes: He Ab; copies: 1 + 1 + 2
B7: GpH7-A5/GpH7-B3 variant P238_09D/GpL16-k0 (antibody, human IgG1, kappa)
heavy 1: not shown
heavy 2: not shown
light: B1 light
notes: He Ab; copies: 1 + 1 + 2
B8: GpH7-A5/GpH7-B3 variant L234_14T/GpL16-k0 (antibody, human IgG1, kappa)
heavy 1: not shown
heavy 2: not shown
light: B1 light
notes: He Ab; copies: 1 + 1 + 2
B9: GpH7-A5/GpH7-B3 variant K326_15Y/GpL16-k0 (antibody, human IgG1, kappa)
heavy 1: not shown
heavy 2: not shown
light: B1 light
notes: He Ab; copies: 1 + 1 + 2
B10: GpH7-A5/GpH7-B3 variant N325_13S/GpL16-k0 (antibody, human IgG1, kappa)
heavy 1: not shown
heavy 2: not shown
light: B1 light
notes: He Ab; copies: 1 + 1 + 2
B11: GpH7-A5/GpH7-B3 variant L235_06M/GpL16-k0 (antibody, human IgG1, kappa)
heavy 1: not shown
heavy 2: not shown
light: B1 light
notes: He Ab; copies: 1 + 1 + 2
B12: GpH7-A5/GpH7-B3 variant K326_14T/GpL16-k0 (antibody, human IgG1, kappa)
heavy 1: not shown
heavy 2: not shown
light: B1 light
notes: He Ab; copies: 1 + 1 + 2
B13: GpH7-A5/GpH7-B3 variant K326_08L/GpL16-k0 (antibody, human IgG1, kappa)
heavy 1: not shown
heavy 2: not shown
light: B1 light
notes: He Ab; copies: 1 + 1 + 2
B14: GpH7-A5/GpH7-B3 variant P238_08L/GpL16-k0 (antibody, human IgG1, kappa)
heavy 1: not shown
heavy 2: not shown
light: B1 light
notes: He Ab; copies: 1 + 1 + 2
B15: GpH7-A5/GpH7-B3 variant L234_10E/GpL16-k0 (antibody, human IgG1, kappa)
heavy 1: not shown
heavy 2: not shown
light: B1 light
notes: He Ab; copies: 1 + 1 + 2
B16: GpH7-A5/GpH7-B3 variant L234_13S/GpL16-k0 (antibody, human IgG1, kappa)
heavy 1: not shown
heavy 2: not shown
light: B1 light
notes: He Ab; copies: 1 + 1 + 2
B17: GpH7-A5/GpH7-B3 variant L234_19Q/GpL16-k0 (antibody, human IgG1, kappa)
heavy 1: not shown
heavy 2: not shown
light: B1 light
notes: He Ab; copies: 1 + 1 + 2
B18: GpH7-A5/GpH7-B3 variant K326_07I/GpL16-k0 (antibody, human IgG1, kappa)
heavy 1: not shown
heavy 2: not shown
light: B1 light
notes: He Ab; copies: 1 + 1 + 2
B19: GpH7-A5/GpH7-B3 variant L234_03V/GpL16-k0 (antibody, human IgG1, kappa)
heavy 1: not shown
heavy 2: not shown
light: B1 light
notes: He Ab; copies: 1 + 1 + 2
B20: GpH7-A5/GpH7-B3 variant L328_15Y/GpL16-k0 (antibody, human IgG1, kappa)
heavy 1: not shown
heavy 2: not shown
light: B1 light
notes: He Ab; copies: 1 + 1 + 2
B21: GpH7-A5/GpH7-B3 variant L235_15Y/GpL16-k0 (antibody, human IgG1, kappa)
heavy 1: not shown
heavy 2: not shown
light: B1 light
notes: He Ab; copies: 1 + 1 + 2
B22: GpH7-A5/GpH7-B3 variant L235_18N/GpL16-k0 (antibody, human IgG1, kappa)
heavy 1: not shown
heavy 2: not shown
light: B1 light
notes: He Ab; copies: 1 + 1 + 2
B23: GpH7-A5/GpH7-B3 variant L328_19Q/GpL16-k0 (antibody, human IgG1, kappa)
heavy 1: not shown
heavy 2: not shown
light: B1 light
notes: He Ab; copies: 1 + 1 + 2
B24: GpH7-A5/GpH7-B3 variant K326_20W/GpL16-k0 (antibody, human IgG1, kappa)
heavy 1: not shown
heavy 2: not shown
light: B1 light
notes: He Ab; copies: 1 + 1 + 2
B25: GpH7-A5/GpH7-B3 variant K326_13S/GpL16-k0 (antibody, human IgG1, kappa)
heavy 1: not shown
heavy 2: not shown
light: B1 light
notes: He Ab; copies: 1 + 1 + 2
B26: GpH7-A5/GpH7-B3 variant L328_06M/GpL16-k0 (antibody, human IgG1, kappa)
heavy 1: not shown
heavy 2: not shown
light: B1 light
notes: He Ab; copies: 1 + 1 + 2
B27: GpH7-A5/GpH7-B3 variant L328_04F/GpL16-k0 (antibody, human IgG1, kappa)
heavy 1: not shown
heavy 2: not shown
light: B1 light
notes: He Ab; copies: 1 + 1 + 2
B28: GpH7-A5/GpH7-B3 variant L235_07I/GpL16-k0 (antibody, human IgG1, kappa)
heavy 1: not shown
heavy 2: not shown
light: B1 light
notes: He Ab; copies: 1 + 1 + 2
B29: GpH7-A5/GpH7-B3 variant L235_02A/GpL16-k0 (antibody, human IgG1, kappa)
heavy 1: not shown
heavy 2: not shown
light: B1 light
notes: He Ab; copies: 1 + 1 + 2
B30: GpH7-A5/GpH7-B3 variant L234_05P/GpL16-k0 (antibody, human IgG1, kappa)
heavy 1: not shown
heavy 2: not shown
light: B1 light
notes: He Ab; copies: 1 + 1 + 2
B31: GpH7-A5/GpH7-B3 variant L235_05P/GpL16-k0 (antibody, human IgG1, kappa)
heavy 1: not shown
heavy 2: not shown
light: B1 light
notes: He Ab; copies: 1 + 1 + 2
B32: GpH7-A5/GpH7-B3 variant L234_09D/GpL16-k0 (antibody, human IgG1, kappa)
heavy 1: not shown
heavy 2: not shown
light: B1 light
notes: He Ab; copies: 1 + 1 + 2
B33: GpH7-A5/GpH7-B3 variant N325_16H/GpL16-k0 (antibody, human IgG1, kappa)
heavy 1: not shown
heavy 2: not shown
light: B1 light
notes: He Ab; copies: 1 + 1 + 2
B34: GpH7-A5/GpH7-B3 variant L235_13S/GpL16-k0 (antibody, human IgG1, kappa)
heavy 1: not shown
heavy 2: not shown
light: B1 light
notes: He Ab; copies: 1 + 1 + 2
B35: GpH7-A5/GpH7-B3 variant L235_16H/GpL16-k0 (antibody, human IgG1, kappa)
heavy 1: not shown
heavy 2: not shown
light: B1 light
notes: He Ab; copies: 1 + 1 + 2
B36: GpH7-A5/GpH7-B3 variant L328_03V/GpL16-k0 (antibody, human IgG1, kappa)
heavy 1: not shown
heavy 2: not shown
light: B1 light
notes: He Ab; copies: 1 + 1 + 2
B37: GpH7-A5/GpH7-B3 variant L235_03V/GpL16-k0 (antibody, human IgG1, kappa)
heavy 1: not shown
heavy 2: not shown
light: B1 light
notes: He Ab; copies: 1 + 1 + 2
B38: GpH7-A5/GpH7-B3 variant K326_19Q/GpL16-k0 (antibody, human IgG1, kappa)
heavy 1: not shown
heavy 2: not shown
light: B1 light
notes: He Ab; copies: 1 + 1 + 2
B39: GpH7-A5/GpH7-B3 variant N325_09D/GpL16-k0 (antibody, human IgG1, kappa)
heavy 1: not shown
heavy 2: not shown
light: B1 light
notes: He Ab; copies: 1 + 1 + 2
B40: GpH7-A5/GpH7-B3 variant L234_06M/GpL16-k0 (antibody, human IgG1, kappa)
heavy 1: not shown
heavy 2: not shown
light: B1 light
notes: He Ab; copies: 1 + 1 + 2
B41: GpH7-A5/GpH7-B3 variant L234_18N/GpL16-k0 (antibody, human IgG1, kappa)
heavy 1: not shown
heavy 2: not shown
light: B1 light
notes: He Ab; copies: 1 + 1 + 2
B42: GpH7-A5/GpH7-B3 variant L235_14T/GpL16-k0 (antibody, human IgG1, kappa)
heavy 1: not shown
heavy 2: not shown
light: B1 light
notes: He Ab; copies: 1 + 1 + 2
B43: GpH7-A5/GpH7-B3 variant K326_16H/GpL16-k0 (antibody, human IgG1, kappa)
heavy 1: not shown
heavy 2: not shown
light: B1 light
notes: He Ab; copies: 1 + 1 + 2
B44: GpH7-A5/GpH7-B3 variant L328_13S/GpL16-k0 (antibody, human IgG1, kappa)
heavy 1: not shown
heavy 2: not shown
light: B1 light
notes: He Ab; copies: 1 + 1 + 2
B45: GpH7-A5/GpH7-B3 variant K326_09D/GpL16-k0 (antibody, human IgG1, kappa)
heavy 1: not shown
heavy 2: not shown
light: B1 light
notes: He Ab; copies: 1 + 1 + 2
B46: GpH7-A5/GpH7-B3 variant L234_15Y/GpL16-k0 (antibody, human IgG1, kappa)
heavy 1: not shown
heavy 2: not shown
light: B1 light
notes: He Ab; copies: 1 + 1 + 2
B47: GpH7-A5/GpH7-B3 variant L234_01G/GpL16-k0 (antibody, human IgG1, kappa)
heavy 1: not shown
heavy 2: not shown
light: B1 light
notes: He Ab; copies: 1 + 1 + 2
B48: GpH7-A5/GpH7-B3 variant L235_10E/GpL16-k0 (antibody, human IgG1, kappa)
heavy 1: not shown
heavy 2: not shown
light: B1 light
notes: He Ab; copies: 1 + 1 + 2
B49: GpH7-A5/GpH7-B3 variant L235_20W/GpL16-k0 (antibody, human IgG1, kappa)
heavy 1: not shown
heavy 2: not shown
light: B1 light
notes: He Ab; copies: 1 + 1 + 2
B50: GpH7-A5/GpH7-B3 variant L328_07I/GpL16-k0 (antibody, human IgG1, kappa)
heavy 1: not shown
heavy 2: not shown
light: B1 light
notes: He Ab; copies: 1 + 1 + 2
B51: GpH7-A5/GpH7-B3 variant L234_20W/GpL16-k0 (antibody, human IgG1, kappa)
heavy 1: not shown
heavy 2: not shown
light: B1 light
notes: He Ab; copies: 1 + 1 + 2
B52: GpH7-A5/GpH7-B3 variant L235_19Q/GpL16-k0 (antibody, human IgG1, kappa)
heavy 1: not shown
heavy 2: not shown
light: B1 light
notes: He Ab; copies: 1 + 1 + 2
B53: GpH7-A5/GpH7-B3 variant L328_16H/GpL16-k0 (antibody, human IgG1, kappa)
heavy 1: not shown
heavy 2: not shown
light: B1 light
notes: He Ab; copies: 1 + 1 + 2
B54: GpH7-A5/GpH7-B3 variant L328_14T/GpL16-k0 (antibody, human IgG1, kappa)
heavy 1: not shown
heavy 2: not shown
light: B1 light
notes: He Ab; copies: 1 + 1 + 2
B55: GpH7-A5/GpH7-B3 variant L235_01G/GpL16-k0 (antibody, human IgG1, kappa)
heavy 1: not shown
heavy 2: not shown
light: B1 light
notes: He Ab; copies: 1 + 1 + 2
B56: GpH7-A5/GpH7-B3 variant K326_10E/GpL16-k0 (antibody, human IgG1, kappa)
heavy 1: not shown
heavy 2: not shown
light: B1 light
notes: He Ab; copies: 1 + 1 + 2
B57: GpH7-A5/GpH7-B3 variant L235_04F/GpL16-k0 (antibody, human IgG1, kappa)
heavy 1: not shown
heavy 2: not shown
light: B1 light
notes: He Ab; copies: 1 + 1 + 2
B58: GpH7-A5/GpH7-B3 variant L234_04F/GpL16-k0 (antibody, human IgG1, kappa)
heavy 1: not shown
heavy 2: not shown
light: B1 light
notes: He Ab; copies: 1 + 1 + 2
B59: GpH7-A5/GpH7-B3 variant L234_02A/GpL16-k0 (antibody, human IgG1, kappa)
heavy 1: not shown
heavy 2: not shown
light: B1 light
notes: He Ab; copies: 1 + 1 + 2
B60: GpH7-A5/GpH7-B3 variant L328_18N/GpL16-k0 (antibody, human IgG1, kappa)
heavy 1: not shown
heavy 2: not shown
light: B1 light
notes: He Ab; copies: 1 + 1 + 2
B61: GpH7-A5/GpH7-B3 variant L234_07I/GpL16-k0 (antibody, human IgG1, kappa)
heavy 1: not shown
heavy 2: not shown
light: B1 light
notes: He Ab; copies: 1 + 1 + 2

These binders were tested against T1, FcγRIIIa extracellular domain, C-terminal His tag (human, UniProt P08637 17-208) (assay: SPR, binding activity relative to GpH7-A5/GpH7-B3/GpL16-k0 (=100)).
T1 construct: extracellular domain; also called 3a
T1 sequence (P08637 other isoform, or with tags, fused parts or gaps): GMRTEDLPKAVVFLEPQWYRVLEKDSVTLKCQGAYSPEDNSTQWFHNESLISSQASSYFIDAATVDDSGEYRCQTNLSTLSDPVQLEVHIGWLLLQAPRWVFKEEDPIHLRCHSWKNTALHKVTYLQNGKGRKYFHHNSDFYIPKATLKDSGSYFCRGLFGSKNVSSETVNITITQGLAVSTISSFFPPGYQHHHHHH

Binder | He/Con 3a [%]
B1 | 127
B2 | 101
B3 | 88.5
B4 | 76.8
B5 | 134
B6 | 81.3
B7 | 100
B8 | 69.8
B9 | 124
B10 | 71.9
B11 | 75.6
B12 | 140
B13 | 126
B14 | 71.3
B15 | 111
B16 | 68.1
B17 | 77.1
B18 | 153
B19 | 88.3
B20 | 70.2
B21 | 77.8

Binder | He/Con 3a [%]
B22 | 65
B23 | 83.4
B24 | 93.7
B25 | 118
B26 | 80.8
B27 | 81.5
B28 | 92.8
B29 | 72
B30 | 85.1
B31 | 68.6
B32 | 113
B33 | 68
B34 | 67.2
B35 | 57.1
B36 | 80.9
B37 | 94.6
B38 | 117
B39 | 53
B40 | 82.9
B41 | 88.2
B42 | 73.2

Binder | He/Con 3a [%]
B43 | 106
B44 | 73.7
B45 | 148
B46 | 126
B47 | 55.8
B48 | 85.6
B49 | 73.8
B50 | 86.4
B51 | 103
B52 | 68.1
B53 | 55.9
B54 | 77.4
B55 | 56.7
B56 | 138
B57 | 76.4
B58 | 114
B59 | 69.7
B60 | 51.1
B61 | 99.5
